Literature values, collected in paper PMC4643947.
pKd: −log10 of the molar value. Read-outs that look alike come from different tables or passages of the source.

Experiments:
p62 (Homo sapiens) [1] = biological target: p62 (Homo sapiens) (UniProt Q13501)
[2] = biological target: Nrf2 10mer peptide (Homo sapiens)
p62 (Homo sapiens) [3] = biological target: p62 (Homo sapiens) (UniProt Q13501); remark: listed apart in the source
[4] = biological target: Nrf2 14mer peptide (Homo sapiens)

pKd (p62 (Homo sapiens) [1]): 5.70 | pKd [2]: 7.52 | pKd (p62 (Homo sapiens) [3]): 6.93 | pKd [4]: 7.21
Substance: Keap1 (from UniProt Q14145)
